In patent publication US20170101664:

Biological target: biosensor SEQ ID NO:47 (KbiotinkkafpaayiaeG-photo-cleavable linker-…rrrqrrkkr)

B1: Lyn kinase (protein)
chain: MGCIKSKGKDSLSDDGVDLKTQPVRNTERTIYVRDPTSNKQQRPVPESQLLPGQRFQTKDPEEQGDIVVALYPYDGIHPDDLSFKKGEKMKVLEEHGEWWKAKSLLTKKEGFIPSNYVAKLNTLETEEWFFKDITRKDAERQLLAPGNSAGAFLIRESETLKGSFSLSVRDFDPVHGDVIKHYKIRSLDNGGYYISPRITFPCISDMIKHYQKQADGLCRRLEKACISPKPQKPWDKDAWEIPRESIKLVKRLGAGQFGEVWMGYYNNSTKVAVKTLKPGTMSVQAFLEEANLMKTLQHDKLVRLYAVVTREEPIYIITEYMAKGSLLDFLKSDEGGKVLLPKLIDFSAQIAEGMAYIERKNYIHRDLRAANVLVSESLMCKIADFGLARVIEDNEYTAREGAKFPIKWTAPEAINFGCFTIKSDVWSFGILLYEIVTYGKIPYPGRTNADVMTALSQGYRMPRVENCPDELYDIMKMCWKEKAEERPTFDYLQSVLDDFYTATEGQYQQQP
phosphorylation in the in vitro kinase assay: Lyn kinase did not phosphorylate the biosensor
